Patent publication US7094575B2 (priority 1999, dated 2006)
Values joined by “and” are separate entries in the source; they are usually repeats but may differ in a detail not shown here. Equal values may be shown once. Read-outs that look alike come from different tables or passages of the source. Where no end group is shown, it is not given here.

Experiments:
[1] = target: Daboiatoxin PLA2 (Daboia siamensis, UniProt Q7T2R1+Q7T3T5); format: in vivo, mice; settings: mouse, in vivo
[2] = target: daboiatoxin, the major PLA2 toxin of Daboia russelli siamensis venom (Daboia siamensis, UniProt Q7T2R1+Q7T3T5); format: biochemical
[3] = tested on: Daboia russelli siamensis venom; format: in vivo, mice
[4] = tested on: PLA2 activity of Daboia russelli siamensis venom; format: biochemical
[5] = tested on: Daboia russelli siamensis (Thailand) venom; format: in vivo, mice
[6] = tested on: Daboia russelli pulchella (Sri Lanka) venom; format: in vivo, mice
[7] = tested on: Daboia russelli russelli (India) venom; format: in vivo, mice
[8] = tested on: Daboia russelli siamensis venom; format: in vivo, mice; settings: Table 6; for Paw oedema: 45 min, n = 3
[9] = target: T1, Daboiatoxin PLA2 (Daboia siamensis, UniProt Q7T2R1+Q7T3T5); format: in vivo, mice
T1 sequence (Q7T2R1 whole entry, looked up): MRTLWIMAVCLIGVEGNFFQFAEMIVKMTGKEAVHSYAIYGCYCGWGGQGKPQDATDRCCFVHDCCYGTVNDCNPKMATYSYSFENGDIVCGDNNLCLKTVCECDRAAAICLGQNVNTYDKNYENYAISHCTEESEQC
T1 sequence (Q7T3T5 whole entry, looked up): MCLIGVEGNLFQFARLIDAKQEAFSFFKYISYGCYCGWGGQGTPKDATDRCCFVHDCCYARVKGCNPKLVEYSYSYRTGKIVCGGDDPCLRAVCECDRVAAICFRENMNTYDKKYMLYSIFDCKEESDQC

[10] = not given; remark: listed apart in the source

In the case of GAFGIFTEDSTEK [PP-0005], the “Anti-Inflammatory Activity” value [1] is reported as “Negative”, the “PLA2-inhibitory activity (in words)” value [2] is reported as “fails to inhibit PLA2 activity” and the “PLA2 inhibition (%)” value [2] is reported as −13%.

For LSLQNGLYK [PP-0006], the “IC50” value [2] was 250 µg and the “PLA2 inhibition (%)” value [2] was 70%.

In the case of PGLPLSLQNG [P-0029], the “IC50” value [2] is reported as 40 µg, the “PLA2 inhibition (%)” value [2] is reported as 90% and the “Oedema (mg), inhibitor alone” value (mouse, in vivo) is reported as 13 ± 2 mg.

With PLPGLPLSKP [P-0009] the “IC50” value [2] was 125 µg and the “PLA2 inhibition (%)” value [2] was 80%.

With PLPGLPLSLQNGLYCPGAFGIF [PP-0036] the “Anti-Inflammatory Activity” value [1] was “Negative”, the “PLA2-inhibitory activity (in words)” value [2] was “devoid of PLA2-inhibitory activity” and the “PLA2 inhibition (%)” value [2] was −3.0%.

For PLPGLPLSLQNGLYK [PP-0008], the “Anti-Inflammatory Activity” value [1] was “Negative”, the “PLA2-inhibitory activity (in words)” value [2] was “insignificant” and the “PLA2 inhibition (%)” value [2] was 18%.

B1: PAF: 140-kDa hexameric glycoprotein of six 23-kDa subunits purified from Python reticulatus serum; SEQ ID NO: 6 (protein, listed as Python reticulatus)
chain: MKSLQTICLLFIFIARGTSDKCEICHGFGDDCDGYQEECPSPEDRCGKILIDIALAPVSFRATHKNCFSSSICKLGRVDIHVWDGVYIRGRTNCCDNDQCEDQPLPGLPLSLQNGLYCPGAFGIFTEDSTEHEVKCRGTETMCLDLVGYRQESYAGNITYNIKGCVSSCPLVTLSERGHEGRKNDLKKVECREALKPASSD
For B1, the “Protection against lethality, Survival/total” value (“Protection … Survival/total” for short) ([3]; 24 hr) was 4/4, the “% neutralisation” value ([3]; mouse, in vivo, ip) was 100% and the “Inhibitory activity (IC50)” value [4] was 0.2 mg. The “Protection … Survival/total” value ([5]; 24 hr) was 3/3, the “% neutralisation” value ([5]; mouse, in vivo, ip) was 100% and the “Protection … Survival/total” value ([6]; 24 hr) was 3/3. The “% neutralisation” value ([6]; mouse, in vivo, ip) was 100%, the “Protection … Survival/total” value ([7]; 24 hr) was 3/3 and the “% neutralisation” value ([7]; mouse, in vivo, ip) was 100%. The “% Inhibition (mean)” value ([8]; venom 5 μg + 25 μg inhibitor) was 7.8%, the “Paw oedema” value ([8]; venom 5 μg + 25 μg inhibitor subplantar, PAF is recombinant) was 107 ± 20 mg and the “% Inhibition (mean)” value ([8]; venom 5 μg + 50 μg inhibitor) was 46.5%. The “Paw oedema” value ([8]; venom 5 μg + 50 μg inhibitor) was 62 ± 2.2 mg, the “% Inhibition (mean)” value ([8]; venom 5 μg + 100 μg inhibitor) was 74.6% and the “Paw oedema” value ([8]; venom 5 μg + 100 μg inhibitor) was 29 ± 0.8 mg. The “Paw oedema” value ([9]; 45 min, n = 3) was 18 ± 6.0 mg and 13 ± 0.4 mg, the “% Inhibition (mean)” value ([9]; mouse, in vivo) was 89.4% and 92.1% and the “Survival/total, PAF alone” value ([10]; 24 hr) was 3/3. The “toxicity of native PAF” value ([10]; mice) was “non-toxic”, the “% Inhibition (mean) column, inhibitor alone” value (mouse, in vivo) was “n.s” and the “Paw oedema (mg), inhibitor alone” value (n = 3) was 10 ± 5.2 mg.
